Drawing on article PMC11054257, this text covers stoichiometry N for 7 substances.

What all share (experiment): SDS-PAGE and Western blot of whole cells (oligomer bands that withstand SDS); 1 OD600 of induced cells in SDS sample buffer, 4~12% SDS-PAGE, PVDF, anti-Flag tag antibody; cells treated with proteinase K or not; positions of monomeric, dimeric and trimeric forms called putative
On the technique in general: A western blot detects proteins with antibodies after separation by electrophoresis.

Test [1] deals with SadA^644 fused with Flag×3 and the UreB epitopes UreB158–172aa and UreB349–363aa (from pSadBA^644-FU2) (Salmonella typhimurium | Helicobacter pylori SS1) (UniProt P69996).
Test [2] deals with SadA^1292 fused with Flag×3 and the UreB epitopes UreB158–172aa and UreB349–363aa (from pSadBA^1292-FU2) (Salmonella typhimurium | Helicobacter pylori SS1) (UniProt P69996).
In test [3] the target is SadA^1292 fused with N-terminal Flag×3-mScarlet (from pSadBA^1292-FM) (Salmonella typhimurium).
Test [4] has as its target SadA^877 fused with Flag×3 and the UreB epitopes UreB158–172aa and UreB349–363aa (from pSadBA^877-FU2) (Salmonella typhimurium | Helicobacter pylori SS1) (UniProt P69996).
Test [5] concerns the target SadA^1171 fused with Flag×3 and the UreB epitopes UreB158–172aa and UreB349–363aa (from pSadBA^1171-FU2) (Salmonella typhimurium | Helicobacter pylori SS1) (UniProt P69996).
Test [6] has as its target SadA^1292 fused with N-terminal Flag×3-UreBm-mScarlet (from pSadBA^1292-FUM) (Salmonella typhimurium | Helicobacter pylori SS1) (UniProt P69996).
Test [7] addresses SadA^877 fused with N-terminal Flag×3-mScarlet (from pSadBA^877-FM) (Salmonella typhimurium).

Broadly, the stoichiometry N is the number of molecules, sites or subunits per partner or assembly. For “SadA^644 fused with Flag×3 and the UreB epitopes UreB158–172aa and UreB349–363aa (from pSadBA^644-FU2) (from UniProt P69996)”, the stoichiometry N in test [1] is 3. For “SadA^1292 fused with Flag×3 and the UreB epitopes UreB158–172aa and UreB349–363aa (from pSadBA^1292-FU2) (from UniProt P69996)”, in test [2], the stoichiometry N is 3. Regarding “SadA^1292 fused with N-terminal Flag×3-mScarlet (from pSadBA^1292-FM)”, in test [3], the stoichiometry N turned out to be 3. For the substance “SadA^877 fused with Flag×3 and the UreB epitopes UreB158–172aa and UreB349–363aa (from pSadBA^877-FU2) (from UniProt P69996)”, in test [4], the stoichiometry N was 3. As for “SadA^1171 fused with Flag×3 and the UreB epitopes UreB158–172aa and UreB349–363aa (from pSadBA^1171-FU2) (from UniProt P69996)”, the stoichiometry N in test [5] came to 3.

“SadA^1292 fused with N-terminal Flag×3-UreBm-mScarlet (from pSadBA^1292-FUM) (from UniProt P69996 111-377)”: in test [6], the stoichiometry N is 3. In test [7], “SadA^877 fused with N-terminal Flag×3-mScarlet (from pSadBA^877-FM)” gave a stoichiometry N of 3.
